The experiment deals with human cytomegalovirus (HCMV)-encoded chemokine receptor US28, HA-tagged (human cytomegalovirus (HCMV)) (UniProt P69332).
Sequence of UniProt P69332 (P69332 whole entry): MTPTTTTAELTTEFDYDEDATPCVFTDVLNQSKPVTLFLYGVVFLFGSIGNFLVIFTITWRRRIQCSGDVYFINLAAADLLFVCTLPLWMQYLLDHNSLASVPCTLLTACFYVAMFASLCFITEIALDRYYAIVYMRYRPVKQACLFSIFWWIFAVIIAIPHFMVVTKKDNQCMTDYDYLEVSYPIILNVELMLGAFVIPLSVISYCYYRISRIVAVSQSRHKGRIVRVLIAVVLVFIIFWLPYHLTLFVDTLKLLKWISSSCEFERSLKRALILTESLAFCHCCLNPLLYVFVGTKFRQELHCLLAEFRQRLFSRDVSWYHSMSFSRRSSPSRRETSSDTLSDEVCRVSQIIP

“recombinant human Fractalkine (from UniProt P78423 25-341) (ligand)” registered a lowest Fractalkine concentration that blocked migration of US28-expressing SMC induced by 40 ng/ml RANTES (competition migration assay) of 10 ng/mL.

Source of the values: paper PMC2637432.
